Results on three substances are retold here after paper PMC5474692.

Like-named read-outs stand apart in the source and are kept apart here.

What all share (test): fluorescence anisotropy against solution viscosity
One experiment has as its target amFP486/K68M (UniProt Q9U6Y6).
The target of experiment [1] is Rosmarinus.
For experiment [2], the target named is Rosmarinus. The source holds these as a separate data set.
Experiment [3] deals with Rosmarinus. The source holds these as a separate data set.
The next experiment concerns the target eqFP486.

In the case of “amFP486/K68M (from UniProt Q9U6Y6 1-229) (natural protein)”, the stoichiometry N (usually a count of units in the complex or per binding partner) with amFP486/K68M was found to be 4.

In the case of Rosmarinus, the results for the stoichiometry N with Rosmarinus [1], in the experiment with Rosmarinus [2] and with Rosmarinus [3] were 4, 4 and 2, respectively.

eqFP486 (natural protein) had a stoichiometry N with eqFP486 of 2.
